# T1: CM10
# T1 chain: MVPSALTVSG
# T2: CM2
# T2 chain: MVLSAVTASG
# T3: CM5
# T3 chain: MVLSAPTASG
# T4: CM6
# T4 chain: MVPSAVTASG
# T5: CM7
# T5 chain: MVPSAYTASG
# T6: CM8
# T6 chain: MVASALTASG
# T7: CM9
# T7 chain: MVVSALTASG
# B1: recombinant human MMP2 (protein)
# chain: YNFFPRKPKWDKNQITYRIIGYTPDLDPETVDDAFARAFQVWSDVTPLRFSRIHDGEADIMINFGRWEHGDGYPFDGKDGLLAHAFAPGTGVGGDSHFDDDELWTLGEGQVVRVKYGNADGEYCKFPFLFNGKEYNSCTDTGRSDGFLWCSTTYNFEKDGKYGFCPHEALFTMGGNAEGQPCKFPFRFQGTSYDSCTTEGRTDGYRWCGTTEDYDRDKKYGFCPETAMSTVGGNSEGAPCVFPFTFLGNKYESCTSAGRSDGKMWCATTANYDDDRKWGFCPDQGYSLFLVAAHEFGHAMGLEHSQDPGALMAPIYTYTKNFRLSQDDIKGIQELYGASPDIDLGTGPTPTLGPVTPEICKQDIVFDGIAQIRGEIFFFKDRFIWRTVTPRDKPMGPLLVATFWPELPEKIDAVYEAPQEEKAVFFAGNEYWIYSASTLERGYPKPLTSLGLPPDVQRVDAAFNWSKNKKTYIFAGDKFWRYNEVKKKMDPGFPKLIADAWNAIPDNLDAVVDLQGGGHSYFFKGAYYLKLENQSLKSVKFGSIKSDWLGC
# B2: recombinant human MMP9 (protein)
# chain: MRTPRCGVPDLGRFQTFEGDLKWHHHNITYWIQNYSEDLPRAVIDDAFARAFALWSAVTPLTFTRVYSRDADIVIQFGVAEHGDGYPFDGKDGLLAHAFPPGPGIQGDAHFDDDELWSLGKGVVVPTRFGNADGAACHFPFIFEGRSYSACTTDGRSDGLPWCSTTANYDTDDRFGFCPSERLYTQDGNADGKPCQFPFIFQGQSYSACTTDGRSDGYRWCATTANYDRDKLFGFCPTRADSTVMGGNSAGELCVFPFTFLGKEYSTCTSEGRGDGRLWCATTSNFDSDKKWGFCPDQGYSLFLVAAHEFGHALGLDHSSVPEALMYPMYRFTEGPPLHKDDVNGIRHLYGPRPEPEPRPPTTTTPQPTAPPTVCPTGPPTVHPSERPTAGPTGPPSAGPTGPPTAGPSTATTVPLSPVDDACNVNIFDAIAEIGNQLYLFKDGKYWRFSEGRGSRPQGPFLIADKWPALPRKLDSVFEERLSKKLFFFSGRQVWVYTGASVLGPRRLDKLGLGADVAQVTGALRSGRGKMLLFSGRRLWRFDVKAQMVDPRSASEVDRMFPGVPLDTHDVFQYREKAYFCQDRFYWRVSSRSELNQVDQVGYVTYDILQCPED
# Tests used:
# [1] = target: T1, CM10
# [2] = target: T2, CM2
# [3] = target: T3, CM5
# [4] = target: T4, CM6
# [5] = target: T5, CM7
# [6] = target: T6, CM8
# [7] = target: T7, CM9
# [8] = target: SB1902-C2
# [9] = target: SB1902-C4
# [10] = target: SB1902-C5
# SB1902-C5, sequence (chain, as listed by the source, chain 1 of 2): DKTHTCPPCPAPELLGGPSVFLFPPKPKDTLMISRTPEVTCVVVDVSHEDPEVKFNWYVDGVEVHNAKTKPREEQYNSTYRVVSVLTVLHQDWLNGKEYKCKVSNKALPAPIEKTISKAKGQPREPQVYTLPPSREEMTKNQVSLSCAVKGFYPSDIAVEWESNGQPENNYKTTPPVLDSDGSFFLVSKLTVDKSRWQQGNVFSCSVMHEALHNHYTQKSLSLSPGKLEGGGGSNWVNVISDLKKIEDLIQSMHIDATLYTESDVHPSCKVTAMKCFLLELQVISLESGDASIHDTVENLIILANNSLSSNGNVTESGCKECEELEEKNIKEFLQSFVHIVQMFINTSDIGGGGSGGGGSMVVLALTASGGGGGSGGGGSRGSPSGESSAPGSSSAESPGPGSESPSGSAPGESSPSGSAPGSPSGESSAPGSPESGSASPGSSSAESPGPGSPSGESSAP
# SB1902-C5, sequence (chain, as listed by the source, chain 2 of 2): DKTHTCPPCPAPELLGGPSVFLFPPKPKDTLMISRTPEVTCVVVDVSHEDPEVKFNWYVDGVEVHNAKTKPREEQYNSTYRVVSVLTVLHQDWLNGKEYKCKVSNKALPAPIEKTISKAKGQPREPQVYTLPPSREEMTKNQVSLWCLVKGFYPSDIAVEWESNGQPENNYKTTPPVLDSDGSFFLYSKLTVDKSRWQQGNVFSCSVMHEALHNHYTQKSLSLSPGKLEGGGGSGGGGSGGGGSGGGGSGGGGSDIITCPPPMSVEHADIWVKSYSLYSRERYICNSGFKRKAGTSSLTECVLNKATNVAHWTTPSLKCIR
# SB1902-C2, sequence (chain, as listed by the source, chain 1 of 2): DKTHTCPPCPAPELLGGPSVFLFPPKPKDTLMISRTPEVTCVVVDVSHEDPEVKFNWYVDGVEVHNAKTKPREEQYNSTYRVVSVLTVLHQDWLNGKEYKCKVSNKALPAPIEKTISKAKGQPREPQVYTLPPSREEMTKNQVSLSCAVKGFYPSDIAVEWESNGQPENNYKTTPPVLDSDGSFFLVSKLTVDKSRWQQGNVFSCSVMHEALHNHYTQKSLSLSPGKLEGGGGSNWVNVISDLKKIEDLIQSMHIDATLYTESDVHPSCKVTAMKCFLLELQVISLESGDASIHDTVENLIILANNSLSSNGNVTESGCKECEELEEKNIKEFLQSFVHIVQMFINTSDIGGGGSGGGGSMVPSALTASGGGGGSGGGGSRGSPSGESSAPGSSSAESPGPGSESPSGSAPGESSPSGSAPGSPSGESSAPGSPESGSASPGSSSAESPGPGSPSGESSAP
# SB1902-C2, sequence (chain, as listed by the source, chain 2 of 2): as the sequence (chain, as listed by the source, chain 2 of 2) above
# SB1902-C4, sequence (chain, as listed by the source, chain 1 of 2): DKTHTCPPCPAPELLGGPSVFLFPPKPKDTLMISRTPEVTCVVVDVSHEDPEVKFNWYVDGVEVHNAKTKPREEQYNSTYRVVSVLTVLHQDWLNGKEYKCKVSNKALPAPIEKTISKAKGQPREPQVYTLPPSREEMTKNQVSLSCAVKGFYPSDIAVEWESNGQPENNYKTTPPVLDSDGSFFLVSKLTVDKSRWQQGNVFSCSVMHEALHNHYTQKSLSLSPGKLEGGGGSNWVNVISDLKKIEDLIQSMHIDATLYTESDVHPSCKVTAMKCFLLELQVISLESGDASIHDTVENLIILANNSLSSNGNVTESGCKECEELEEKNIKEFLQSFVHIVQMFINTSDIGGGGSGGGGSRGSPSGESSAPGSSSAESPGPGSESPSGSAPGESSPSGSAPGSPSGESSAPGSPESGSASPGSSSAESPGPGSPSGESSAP
# SB1902-C4, sequence (chain, as listed by the source, chain 2 of 2): as the sequence (chain, as listed by the source, chain 2 of 2) above
Protein,in vitro protease digestion (data not shown) [1],in vitro protease digestion (data not shown) [2],in vitro protease digestion (data not shown) [3],in vitro protease digestion (data not shown) [4],in vitro protease digestion (data not shown) [5],in vitro protease digestion (data not shown) [6],in vitro protease digestion (data not shown) [7],"digestion efficiency by SDS-PAGE (1 µg activated MMP2, 250 µg prodrug, 37° C., 5 hrs) [8]","in vitro protease digestion, polyacrylamide gel [8]","in vitro protease digestion, polyacrylamide gel [9]","in vitro protease digestion, polyacrylamide gel [10]"
B1,"The other cleavable moieties (such as CM2, CM5-CM10) was also cleavable in vitro by both MMP2 and MMP9 (data not shown)","The other cleavable moieties (such as CM2, CM5-CM10) was also cleavable in vitro by both MMP2 and MMP9 (data not shown)","The other cleavable moieties (such as CM2, CM5-CM10) was also cleavable in vitro by both MMP2 and MMP9 (data not shown)","The other cleavable moieties (such as CM2, CM5-CM10) was also cleavable in vitro by both MMP2 and MMP9 (data not shown)","The other cleavable moieties (such as CM2, CM5-CM10) was also cleavable in vitro by both MMP2 and MMP9 (data not shown)","The other cleavable moieties (such as CM2, CM5-CM10) was also cleavable in vitro by both MMP2 and MMP9 (data not shown)","The other cleavable moieties (such as CM2, CM5-CM10) was also cleavable in vitro by both MMP2 and MMP9 (data not shown)",about 90% of the prodrug SB1902-C2 was digested,"The mutated substrate CM1 was cleavable in vitro by both MMP2 and MMP9 enzymes, with an enzyme dose-dependent manner",the non-cleavable G4S linker in SB1902-C4 was resistant to both MMP2 and MMP9 enzyme digestion,"The mutated substrate CM4 was cleavable in vitro by both MMP2 and MMP9 enzymes, with an enzyme dose-dependent manner"
B2,"The other cleavable moieties (such as CM2, CM5-CM10) was also cleavable in vitro by both MMP2 and MMP9 (data not shown)","The other cleavable moieties (such as CM2, CM5-CM10) was also cleavable in vitro by both MMP2 and MMP9 (data not shown)","The other cleavable moieties (such as CM2, CM5-CM10) was also cleavable in vitro by both MMP2 and MMP9 (data not shown)","The other cleavable moieties (such as CM2, CM5-CM10) was also cleavable in vitro by both MMP2 and MMP9 (data not shown)","The other cleavable moieties (such as CM2, CM5-CM10) was also cleavable in vitro by both MMP2 and MMP9 (data not shown)","The other cleavable moieties (such as CM2, CM5-CM10) was also cleavable in vitro by both MMP2 and MMP9 (data not shown)","The other cleavable moieties (such as CM2, CM5-CM10) was also cleavable in vitro by both MMP2 and MMP9 (data not shown)",–,"The mutated substrate CM1 was cleavable in vitro by both MMP2 and MMP9 enzymes, with an enzyme dose-dependent manner",the non-cleavable G4S linker in SB1902-C4 was resistant to both MMP2 and MMP9 enzyme digestion,"The mutated substrate CM4 was cleavable in vitro by both MMP2 and MMP9 enzymes, with an enzyme dose-dependent manner"
